Molecular target: LRRK2 wild-type (UniProt Q5S007 1-2527)
Assay: EMSA

Sequence of LRRK2 wild-type (Q5S007 whole entry): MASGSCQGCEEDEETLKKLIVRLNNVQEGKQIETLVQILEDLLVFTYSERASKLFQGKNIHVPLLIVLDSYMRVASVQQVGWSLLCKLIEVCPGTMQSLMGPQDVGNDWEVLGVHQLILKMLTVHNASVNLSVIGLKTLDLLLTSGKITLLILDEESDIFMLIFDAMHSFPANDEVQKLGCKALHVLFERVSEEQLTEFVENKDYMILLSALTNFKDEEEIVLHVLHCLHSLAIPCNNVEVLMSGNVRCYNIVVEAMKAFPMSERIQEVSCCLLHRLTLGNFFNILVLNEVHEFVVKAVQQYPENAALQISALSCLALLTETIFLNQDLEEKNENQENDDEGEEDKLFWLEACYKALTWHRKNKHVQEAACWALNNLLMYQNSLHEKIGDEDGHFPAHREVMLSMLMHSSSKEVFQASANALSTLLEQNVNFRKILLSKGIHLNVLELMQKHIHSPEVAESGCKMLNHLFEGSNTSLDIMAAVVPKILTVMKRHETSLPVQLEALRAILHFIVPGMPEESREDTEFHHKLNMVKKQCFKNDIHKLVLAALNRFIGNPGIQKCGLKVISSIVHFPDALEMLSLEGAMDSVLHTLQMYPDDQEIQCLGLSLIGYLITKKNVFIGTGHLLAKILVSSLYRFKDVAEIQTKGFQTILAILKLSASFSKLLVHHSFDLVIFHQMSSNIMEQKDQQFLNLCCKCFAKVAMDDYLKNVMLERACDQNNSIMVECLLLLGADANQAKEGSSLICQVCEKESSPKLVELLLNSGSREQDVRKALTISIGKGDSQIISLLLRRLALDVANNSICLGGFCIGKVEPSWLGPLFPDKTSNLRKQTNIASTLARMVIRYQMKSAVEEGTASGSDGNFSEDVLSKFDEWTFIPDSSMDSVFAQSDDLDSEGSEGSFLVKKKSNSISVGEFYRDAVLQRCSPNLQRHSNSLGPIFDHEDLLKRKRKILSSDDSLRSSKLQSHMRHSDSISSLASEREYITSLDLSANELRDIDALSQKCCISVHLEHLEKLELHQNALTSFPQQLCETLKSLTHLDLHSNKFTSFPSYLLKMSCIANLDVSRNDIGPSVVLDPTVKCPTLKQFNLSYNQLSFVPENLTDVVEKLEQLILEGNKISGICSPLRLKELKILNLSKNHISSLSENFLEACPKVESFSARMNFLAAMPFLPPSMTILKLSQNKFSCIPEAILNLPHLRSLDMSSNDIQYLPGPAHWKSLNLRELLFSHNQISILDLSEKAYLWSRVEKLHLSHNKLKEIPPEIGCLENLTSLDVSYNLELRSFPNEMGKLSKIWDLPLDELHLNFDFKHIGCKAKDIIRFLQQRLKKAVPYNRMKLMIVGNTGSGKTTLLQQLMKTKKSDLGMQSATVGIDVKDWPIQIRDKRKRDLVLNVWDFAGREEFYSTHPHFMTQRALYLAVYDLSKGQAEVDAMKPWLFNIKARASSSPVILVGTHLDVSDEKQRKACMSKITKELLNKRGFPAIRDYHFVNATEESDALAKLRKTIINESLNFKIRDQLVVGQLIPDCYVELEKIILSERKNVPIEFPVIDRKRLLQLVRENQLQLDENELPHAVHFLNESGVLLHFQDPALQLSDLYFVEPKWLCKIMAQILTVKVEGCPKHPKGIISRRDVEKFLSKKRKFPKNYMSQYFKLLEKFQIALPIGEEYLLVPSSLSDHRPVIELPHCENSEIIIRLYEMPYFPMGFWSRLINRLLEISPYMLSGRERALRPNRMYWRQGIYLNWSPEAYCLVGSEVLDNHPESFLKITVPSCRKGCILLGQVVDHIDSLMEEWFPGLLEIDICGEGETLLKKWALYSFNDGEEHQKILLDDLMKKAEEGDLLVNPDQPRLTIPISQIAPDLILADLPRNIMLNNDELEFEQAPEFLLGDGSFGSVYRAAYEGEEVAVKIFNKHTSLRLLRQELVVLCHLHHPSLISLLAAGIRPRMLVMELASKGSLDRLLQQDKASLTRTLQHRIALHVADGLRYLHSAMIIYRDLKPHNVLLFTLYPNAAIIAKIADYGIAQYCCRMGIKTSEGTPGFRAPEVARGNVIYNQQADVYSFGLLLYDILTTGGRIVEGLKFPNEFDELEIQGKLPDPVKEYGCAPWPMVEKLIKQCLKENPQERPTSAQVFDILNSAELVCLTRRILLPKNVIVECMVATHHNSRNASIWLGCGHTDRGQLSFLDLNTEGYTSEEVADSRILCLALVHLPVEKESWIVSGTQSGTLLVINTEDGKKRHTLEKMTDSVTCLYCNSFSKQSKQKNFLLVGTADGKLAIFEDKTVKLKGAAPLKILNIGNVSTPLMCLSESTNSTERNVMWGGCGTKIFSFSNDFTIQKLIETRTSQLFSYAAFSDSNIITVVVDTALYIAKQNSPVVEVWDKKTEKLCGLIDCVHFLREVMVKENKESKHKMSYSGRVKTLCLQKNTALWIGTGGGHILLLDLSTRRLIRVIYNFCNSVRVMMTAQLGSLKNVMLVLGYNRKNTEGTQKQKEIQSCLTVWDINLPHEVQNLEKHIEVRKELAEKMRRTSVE

Binder	binding result
GGAAACAGUCAUUUGCGCACAACUUUAAAAGUCUGCAU (ssRNA) [BDNF 3'UTR control segment without neuronal ELAV sites]	no binding
AGAAAAAAUAUUUAUUGUAUUUUAGUAUAUUUAUAUAA (ssRNA) [BDNF 3'UTR neuronal ELAV binding segment (U-rich)]	no binding
